Patent US20140378382A1

How the values were obtained:
[1] = biological target: PTHR-1 (species and cells not stated for the assay) (Homo sapiens (Human)) (UniProt Q03431); test: cell-based or functional assay
[2] = biological target: parathyroid hormone receptor-2 (PTHR-2); test: cell-based or functional assay

Sequence of PTHR-1 (species and cells not stated for the assay) (Homo sapiens (Human)) (Q03431 27-593 limits assumed, form in doubt): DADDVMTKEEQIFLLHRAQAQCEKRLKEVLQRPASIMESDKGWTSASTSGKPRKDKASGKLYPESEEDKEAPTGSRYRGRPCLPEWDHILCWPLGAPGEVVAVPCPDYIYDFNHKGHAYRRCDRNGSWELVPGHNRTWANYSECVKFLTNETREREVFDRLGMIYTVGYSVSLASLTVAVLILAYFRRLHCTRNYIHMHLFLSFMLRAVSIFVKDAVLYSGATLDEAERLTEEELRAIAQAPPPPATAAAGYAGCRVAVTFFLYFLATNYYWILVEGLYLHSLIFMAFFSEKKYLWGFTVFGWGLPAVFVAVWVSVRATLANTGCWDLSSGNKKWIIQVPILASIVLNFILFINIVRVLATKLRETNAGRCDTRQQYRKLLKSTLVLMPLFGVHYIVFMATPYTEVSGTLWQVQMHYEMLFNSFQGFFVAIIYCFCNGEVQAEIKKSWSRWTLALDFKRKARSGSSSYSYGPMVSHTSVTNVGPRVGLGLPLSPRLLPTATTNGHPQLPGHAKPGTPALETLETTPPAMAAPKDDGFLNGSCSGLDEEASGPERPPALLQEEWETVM

cAMP response PTH1R/PTH2R [1]	cAMP response PTH2R/PTH1R [2]	Substance
27	0.04	hPTHrP(1-36) (from UniProt P12272 37-72) (peptide)
0.01	165	hTIP(1-39) (from UniProt Q96A98 62-100) (peptide)
